Consider 3 substances from patent US20200024330A1.

What all share (test): cell-based or functional assay
Test [1] deals with HIV-1 Env of isolate MGRM-D-021 (clade D) (HIV-1).
Test [2] deals with HIV-1 MGRM-A-012 envelope glycoprotein (Env) (HIV-1).
For test [3], the target named is HIV-1 Env of pseudovirus 93TH305, clade B (HIV-1).
Test [4] addresses HIV-1 MGRM-C-023 Env (HIV-1).
Test [5] has as its target HIV-1 Env of pseudovirus MGRM-Chronic-B-003, clade B (HIV-1).
The target in test [6] is HIV-1 MGRM-C-017 Env (HIV-1).
Test [7] has as its target HIV-1 MGRM-C-019 Env (HIV-1).
The target of test [8] is HIV-1 Env of pseudovirus TRJ0.58 (Acute), clade B (HIV-1).
In test [9] the target is HIV-1 VLGCA1 envelope glycoprotein (Env) on pseudovirus (HIV-1).
Test [10] addresses HIV-1 Env of pseudovirus QH0692.42 (Acute), clade B (HIV-1).
In test [11] the target is HIV-1 MGRM-A-008 envelope glycoprotein (Env) (HIV-1).
The target of test [12] is HIV-1 Env of pseudovirus APV_13, clade B (HIV-1).
Test [13] addresses HIV-1 MGRM-A-005 envelope glycoprotein (Env) (HIV-1).
The target in test [14] is HIV-1 Env of isolate MGRM-AE-003 (HIV-1).
The target in test [15] is HIV-1 Env of pseudovirus MGRM-Chronic-B-002, clade B (HIV-1).
For test [16], the target named is HIV-1 Env of pseudovirus THR0.18 (Acute), clade B (HIV-1).
The target of test [17] is HIV-1 MGRM-F1-016 Env (pseudovirus) (HIV-1).
Test [18] concerns the target HIV-1 MGRM-F1-020 Env (pseudovirus) (HIV-1).

Sequence of 1443_C16 (PG16) (TCN-116) (antibody) (VH): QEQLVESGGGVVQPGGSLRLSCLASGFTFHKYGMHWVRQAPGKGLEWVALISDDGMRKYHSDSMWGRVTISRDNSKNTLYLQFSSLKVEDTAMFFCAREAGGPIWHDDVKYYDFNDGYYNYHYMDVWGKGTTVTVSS
Sequence of 1443_C16 (PG16) (TCN-116) (antibody) (VL): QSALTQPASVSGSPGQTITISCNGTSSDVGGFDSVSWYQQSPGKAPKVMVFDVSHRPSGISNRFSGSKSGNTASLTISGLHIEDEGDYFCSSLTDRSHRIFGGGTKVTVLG

As a reminder, the IC50 is the concentration needed to halve the response being measured. Low values mean greater potency, high ones weaker potency. On to 1443_C16 (PG16) (TCN-116) (antibody), for which the IC50 (µg/ml), pseudovirus neutralization in test [1] was over 50 µg/mL; in test [2], 20.7 µg/mL; in [3] it was 19.3 µg/mL; in test [5], 0.19 µg/mL; in [8] it was 1.16 µg/mL; in test [9] it was 0.18 µg/mL. Besides, the IC50 (µg/ml), pseudovirus neutralization in test [10] was over 50 µg/mL; in test [11], over 50 µg/mL; in test [12] it was over 50 µg/mL; in test [13], 0.09 µg/mL; in test [14], 0.03 µg/mL; in [15] it was 3.06 µg/mL. The values for the IC50 (µg/ml), pseudovirus neutralization in [16], in [17] and in test [18] were 1.34 µg/mL, 1.12 µg/mL and 4.35 µg/mL, respectively. For the same substance, the half-inhibitory concentration (IC50) was determined as 0.09 µg/mL in [4], 1.8 µg/mL in test [6] and 0.002 µg/mL in test [7].

Take 1495_C14 (PGC14) (antibody): the IC50 (µg/ml), pseudovirus neutralization was over 50 µg/mL in test [1]; over 50 µg/mL in [2]; 6 µg/mL in test [3]; over 50 µg/mL in test [5]; over 50 µg/mL in [8]; over 50 µg/mL in test [9]. Further, the IC50 (µg/ml), pseudovirus neutralization in [10], in [11], in test [12], in test [13], in [14] and in test [15] was over 50 µg/mL each time. Also, the IC50 (µg/ml), pseudovirus neutralization in test [16], in test [17] and in test [18] was over 50 µg/mL throughout. The IC50 in test [4] is over 50 µg/mL; in [6] it was over 50 µg/mL; in [7] it was 12 µg/mL.

b12 (antibody): the IC50 (µg/ml), pseudovirus neutralization was 5.23 µg/mL in test [1]; over 50 µg/mL in test [2]; 4.17 µg/mL in [3]; over 50 µg/mL in test [5]; over 50 µg/mL in test [8]; over 50 µg/mL in test [9]. For the same substance, the IC50 (µg/ml), pseudovirus neutralization in test [10] is 0.73 µg/mL; in test [11] it was over 50 µg/mL; in [12] it was over 50 µg/mL; in test [13], 3.64 µg/mL; in [14] it was over 50 µg/mL; in [15], 0.86 µg/mL. The IC50 (µg/ml), pseudovirus neutralization is 3.62 µg/mL in test [16], over 50 µg/mL in test [17] and over 50 µg/mL in test [18]. In addition, the values for the IC50 in test [4], in test [6] and in [7] were 13.9 µg/mL, over 50 µg/mL and over 50 µg/mL, respectively.
